In patent publication US20230357411A1 one finds OD450 data, which are given here for four molecules.

The target in the assay is TrKA (ELISA antigen, target Human-TrKA) (human) (UniProt P04629). The assay can be described thus: ELISA, antibody 0 to 20 µg/mL, plateau.
Sequence of TrKA (ELISA antigen, target Human-TrKA) (human) (P04629 33-423 limits assumed): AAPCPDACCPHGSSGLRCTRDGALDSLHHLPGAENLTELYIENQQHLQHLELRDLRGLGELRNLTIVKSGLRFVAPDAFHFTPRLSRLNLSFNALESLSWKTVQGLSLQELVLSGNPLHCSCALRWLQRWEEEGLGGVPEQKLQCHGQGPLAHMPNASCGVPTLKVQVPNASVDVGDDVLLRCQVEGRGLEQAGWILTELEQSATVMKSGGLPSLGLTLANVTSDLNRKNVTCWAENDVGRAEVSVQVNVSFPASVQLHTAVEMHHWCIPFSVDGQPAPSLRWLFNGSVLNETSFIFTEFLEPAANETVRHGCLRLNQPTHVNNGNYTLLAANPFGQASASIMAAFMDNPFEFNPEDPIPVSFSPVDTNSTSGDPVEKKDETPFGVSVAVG

B1: humanized anti-TrkA monoclonal antibody H3L1-IgG4 (antibody, V domains shown)
VH: EVQLLESGGGLVQPGGSLKLSCKASGYAFTNYWLGWMKQRPGHGLEWIGDFYPRTGNTFYNENFKGQVTMSVDKSITTAYLQWNSLKASDTAMYYCARAGTGFDYWGQGTTLTVSS
VL: EIVMTQSPATLSLSVGERVTLSCKASENVGGYVSWYQQKPDQSPKLLIYGASSRHTGVPDRFTGSGSETDFTLTISSVQAEDLAAYHCGQNYIYPFTFGGGTKLEIKR
As for B1, the OD450 was 3.

B2: humanized anti-TrkA monoclonal antibody H3L2-IgG4 (antibody, V domains shown)
VH: EVQLLESGGGLVQPGGSLKLSCKASGYAFTNYWLGWMKQRPGHGLEWIGDFYPRTGNTFYNENFKGQVTMSVDKSITTAYLQWNSLKASDTAMYYCARAGTGFDYWGQGTTLTVSS
VL: EIVMTQSPATLSLSVGERVTLSCKASENVGGYVSWYQQKPDQSPKLLIYGASSRATGVPDRFTGSGSETDFTLTISSVQAEDLAAYHCGQNYIYPFTFGGGTKLEIKR
With B2, the OD450 is 3.

B3: humanized anti-TrkA monoclonal antibody H1L1-IgG4 (antibody)
heavy: EVQLLESGGGLVQPGGSLKLSCKASGYAFTNYWLGWMKQRPGHGLEWIGDFYPRTGNTFYNENFKGKVTLTADKSSNTAYMQLSSLTSEDSAVYLCARAGTGFDYWGQGTTLTVSSASTKGPSVFPLAPCSRSTSESTAALGCLVKDYFPEPVTVSWNSGALTSGVHTFPAVLQSSGLYSLSSVVTVPSSSLGTKTYTCNVDHKPSNTKVDKRVESKYGPPCPPCPAPEAAGGPSVFLFPPKPKDTLMISRTPEVTCVVVDVSQEDPEVQFNWYVDGVEVHNAKTKPREEQFNSTYRVVSVLTVLHQDWLNGKEYKCKVSNKGLPSSIEKTISKAKGQPREPQVYTLPPSQEEMTKNQVSLTCLVKGFYPSDIAVEWESNGQPENNYKTTPPVLDSDGSFFLYSKLTVDKSRWQEGNVFSCSVMHEALHNHYTQKSLSLSLG
light: EIVMTQSPATLSLSVGERVTLSCKASENVGGYVSWYQQKPDQSPKLLIYGASSRHTGVPDRFTGSGSETDFTLTISSVQAEDLAAYHCGQNYIYPFTFGGGTKLEIKRTVAAPSVFIFPPSDEQLKSGTASVVCLLNNFYPREAKVQWKVDNALQSGNSQESVTEQDSKDSTYSLSSTLTLSKADYEKHKVYACEVTHQGLSSPVTKSFNRGEC
For the molecule B3, the OD450 is 3.

B4: human-mouse chimeric anti-TrkA monoclonal antibody 23E12 (H0L0-IgG4) (antibody)
heavy: QVQLQQSGAELVRPGTSVKISCKASGYAFTNYWLGWMKQRPGHGLEWIGDFYPRTGNTFYNENFKGKVTLTADKSSNTAYMQLSSLTSEDSAVYLCARAGTGFDYWGQGTTLTVSSASTKGPSVFPLAPCSRSTSESTAALGCLVKDYFPEPVTVSWNSGALTSGVHTFPAVLQSSGLYSLSSVVTVPSSSLGTKTYTCNVDHKPSNTKVDKRVESKYGPPCPPCPAPEAAGGPSVFLFPPKPKDTLMISRTPEVTCVVVDVSQEDPEVQFNWYVDGVEVHNAKTKPREEQFNSTYRVVSVLTVLHQDWLNGKEYKCKVSNKGLPSSIEKTISKAKGQPREPQVYTLPPSQEEMTKNQVSLTCLVKGFYPSDIAVEWESNGQPENNYKTTPPVLDSDGSFFLYSKLTVDKSRWQEGNVFSCSVMHEALHNHYTQKSLSLSLG
light: SIVMTQSPKSMSMSVGERVTLSCKASENVGGYVSWYQQKPDQSPKLLIYGASSRHTGVPDRFTGSGSETDFTLTISSVQAEDLAAYHCGQNYIYPFTFGGGTKLEIKRTVAAPSVFIFPPSDEQLKSGTASVVCLLNNFYPREAKVQWKVDNALQSGNSQESVTEQDSKDSTYSLSSTLTLSKADYEKHKVYACEVTHQGLSSPVTKSFNRGEC
B4: the OD450 was found to be 3.
